{
  "source": "patent US12636342B2",
  "about": "“TARS derived from Akkermansia muciniphila or fragment thereof, and use thereof” (KOREA RESEARCH INSTITUTE OF BIOSCIENCE AND BIOTECHNOLOGY, priority 2020, dated 2026)",
  "molecules": {"B1": {"name": "Akkermansia muciniphila-derived threonyl-tRNA synthetase (TARS) (protein)", "chain": "MSEHKERKTLEERQQMSDLERLRHSCAHVLATAICRLWPDAQLAGGPAVDNGFYYDVELDHRISTEDFERIEEEMKKVVKENQVFQKEVISRADAMKMAESGELGALGPRSEPSRFKIDLLNDIPEDEEISLYRNGDFTDLCAGPHVGRTGNCKAFKIMSVASAFYKGDKNRPMLQRIYGTCFPNRTQLDEHLERLEEARRRDHRKLGRELGLFCIDESVGQGLILWKPKGALIRRSLQDFITEELDKLGYSQVYTPNIGKLDLYRTSGHFPYYQESQYAPIPERDAMEKLSQEGASCAELFNGLATGTIEGYMLKPMNCPHHIKIYANDAHSYRDLPVRLAEFGTVYRWEQSGELGGMTRVRGFTQDDAHIFCTPDQLAGEIRQCLGIVKTIFGTLGMTDYRVRLSMRDPESDKYVGSPENWDKAEQALREAAEWLGADYSEEAGEAAFYGPKIDFIVRDAIGREWQLGTVQVDYNLPERFDLHYTGADNKPHRPVMVHRAPFGSMERFTGLLIEHFEGKFPTWLSPEQVRVLPISDKVTDVAAAHRTALAARGVRVTVDETPDKIGAKIRNARLDRVPYMLVLGQREAEDGTVSVRHRDKGDLGAMPFEQFADLVAREIAERHISPVI", "modifications": "Akkermansia muciniphila TARS"}},
  "key": {"mouse adipocyte 3T3-L1": {"tested_on": "mouse adipocyte 3T3-L1", "assay": "Immunoblot of insulin signaling in 3T3-L1 with PMA or TNF-α induced inflammation", "assay_type": "cell-based", "details": "0.5 μM AmTARS", "procedure": "Next, to determine whether the anti-inflammatory function of AmTARS affected the regulation of metabolic disease-associated intracellular signaling, immunoblot analysis was performed using the mouse adipocyte 3T3-L1.\nSpecifically, 3T3-L1 cells were cultured in DMEM containing 10% bovine calf serum (BCS) and antibiotics under conditions of 5% CO2 and 37° C. The cells were treated with 2 μM phorbol 12-myristate 13-acetate (PMA) or 20 ng/ml TNF-α to create an inflammatory environment in the cultured cells. The cells were treated with 100 nM insulin and 0.5 μM AmTARS for 24 h, and then changes in intracellular signaling were investigated."}, "[1]": {"tested_on": "Tg (NFκB:EGFP) zebrafish transgenic line", "assay": "NF-κB activity in DSS-treated Tg (NFκB:EGFP) zebrafish larvae", "assay_type": "in vivo", "details": "yolk injection at 3 dpf, 0.5% DSS, analysis at 6 dpf", "procedure": "(A-E) Global gene expression analysis. Total mRNA from BMDMs treated with either AmTARS (0.5 μM) or Pam3 (10 ng ml-1) for 1 or 3 h was isolated and analyzed by RNA sequencing (A). Principle components analysis (PCA) of the gene expression profiles for each sample (B). Hierarchical clustering of gene expression profiles from each sample identified cluster 3 and 4 (C). Gene set enrichment analysis (GSEA) of clusters 3 and 4 with respect to terms related to inflammation (D). […] (F) Overview of the experimental procedures for zebrafish. The yolk of Tg (NFκB:EGFP) transgenic zebrafish larvae (3 dpf) was injected with PBS or AmTARS. Injected larvae were treated at 3 and 5 dpf with 0.5% DSS for 24 h, with a washing period with fresh water for 24 h in between. Sample collection and analysis of Tg (NFκB:EGFP)-based EGFP intensity were conducted at 6 dpf. (G) Representative confocal images showing NF-κB signaling in the mid-distal intestines of PBS- or AmTARS-injected larvae with or without DSS treatment. White dashed lines denote the boundaries of the intestines (based on merged DIC bright field images). (H) Bar graph comparing the fluorescence intensity of the mid-distal intestines of PBS- or AmTARS-injected larvae treated (or not) with DSS (n=32 per PBS group and n=35 per DSS group). […] P-values were calculated by unpaired and two-tailed Student's t-test. […]"}, "[2]": {"target": "T1, Toll-like receptor 2 (TLR2) (Homo sapiens, UniProt O60603)", "T1 construct": "13; TLR2; 17; pIRES-FLAG; FLAG; Mammal; FLAG (C); expressed in transfected cells; host or cells: HEK 293T (human)", "T1 sequence (O60603 21-784)": "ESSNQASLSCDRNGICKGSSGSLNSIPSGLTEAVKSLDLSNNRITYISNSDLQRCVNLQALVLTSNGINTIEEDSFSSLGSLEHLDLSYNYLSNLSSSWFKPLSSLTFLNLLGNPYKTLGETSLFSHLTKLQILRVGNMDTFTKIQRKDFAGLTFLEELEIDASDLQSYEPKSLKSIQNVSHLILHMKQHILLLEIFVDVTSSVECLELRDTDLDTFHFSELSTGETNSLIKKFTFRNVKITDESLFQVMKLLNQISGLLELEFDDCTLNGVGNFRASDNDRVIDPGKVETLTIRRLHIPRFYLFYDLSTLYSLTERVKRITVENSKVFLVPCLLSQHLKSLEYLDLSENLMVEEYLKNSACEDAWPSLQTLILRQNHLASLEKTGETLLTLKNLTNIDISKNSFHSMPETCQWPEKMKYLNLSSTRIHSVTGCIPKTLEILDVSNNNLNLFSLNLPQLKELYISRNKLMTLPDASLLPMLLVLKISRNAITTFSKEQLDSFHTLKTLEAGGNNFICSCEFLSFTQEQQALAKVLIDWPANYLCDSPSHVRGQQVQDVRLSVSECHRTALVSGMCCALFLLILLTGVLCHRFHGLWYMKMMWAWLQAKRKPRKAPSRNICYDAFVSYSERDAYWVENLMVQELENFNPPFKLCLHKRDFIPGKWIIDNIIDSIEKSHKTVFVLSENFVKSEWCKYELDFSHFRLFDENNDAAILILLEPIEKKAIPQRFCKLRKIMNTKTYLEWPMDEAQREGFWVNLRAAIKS", "assay": "Pull-down / in vitro interaction assay with TLR2", "assay_type": "binding", "procedure": "Then, Strep-tagged AmTARS, AmTARS having deletions of two functional site (AmTARSΔ1Δ2), and FLAG-tagged TLR2 were transduced into human-derived HEK 293T cells through PEI, and thereafter, the cells were lysed using a lysis buffer containing 50 mM Tris-HCl (pH 7.5), 100 mM NaCl, 1% NP-40, 1 mM EDTA, 0.25% Na-deoxycholate, and a protease inhibitor cocktail. The cell lysates each were incubated with Strep Tactin beads and washed with a buffer containing 137 mM NaCl, 2.7 mM KCl, 10 mM Na2HPO4, 1.8 mM KH2PO4, and 1 mM EDTA, and proteins attached to the beads were eluted and analyzed by immunoblotting.\nIn addition, His-tagged AmTARS and FLAG-tagged protein were mixed at a ratio of 1:2, incubated with Ni-NTA beads, and then washed with a buffer containing 50 mM Tris-HCl (pH 8.0), 300 mM NaCl, 30 mM imidazole, and 1% NP-40, and the proteins attached to the beads were eluted and identified on SDS-PAGE gel."}, "[3]": {"tested_on": "mouse bone marrow-derived macrophages (BMDMs)", "assay": "ELISA of immune cytokine secretion in BMDMs under normal conditions", "assay_type": "cell-based", "details": "normal (non-inflammatory) conditions, 24 h", "outline": "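Mouse BMDMs from femur and tibia were cultured in DMEM with 10% FBS. Cells were treated with AmTARS at 0.1, 0.2 or 0.5 μM for 24 h. Cell-free supernatants were assayed by ELISA for mouse IL-6, IL-10 and TNF-α.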"}, "[4]": {"tested_on": "B cell-deficient μMut mice", "assay": "DSS-induced inflammatory bowel disease in B cell-deficient μMut mice", "assay_type": "in vivo, mouse", "procedure": "To determine whether the inflammatory bowel disease alleviation effect induced through the secretion of IL-10 cytokine by AmTARS corresponded to a B cell-mediated effect, DSS was administered to B cell-deficient μMut mice (μ heavy chain mutation mice, B cell depletion mice) by way of the same method as in Example 5 to induce inflammatory bowel disease, and AmTARS was administered."}},
  "note": "Entries after “also recorded” stand apart in the source; their conditions may differ.",
  "data": [
    {"molecule": "B1", "values": [
      {"measurement": "phosphorylation of protein kinase B (AKT)", "setting": "mouse adipocyte 3T3-L1; 3T3-L1, 100 nM insulin and 2 μM PMA, 24 h", "value": "again increased the phosphorylation"},
      {"measurement": "S6 kinase (S6K)", "setting": "mouse adipocyte 3T3-L1; 3T3-L1, TNF-α, insulin", "value": "phosphorylated and activated"},
      {"measurement": "glycogen synthase kinase (GSK)-3β", "setting": "mouse adipocyte 3T3-L1; 3T3-L1, TNF-α, insulin", "value": "phosphorylated and inhibited"},
      {"measurement": "insulin receptor substrate (IRS)", "setting": "mouse adipocyte 3T3-L1; 3T3-L1, TNF-α, insulin", "value": "no significant change"},
      {"measurement": "phosphorylation of AKT", "setting": "mouse adipocyte 3T3-L1; 3T3-L1, insulin resistance induced by 20 ng/ml TNF-α, 100 nM insulin", "value": "increased the phosphorylation"},
      {"measurement": "NF-κB activity in the distal intestine induced by repeated DSS treatment", "setting": "[1]", "value": "significantly dampened"},
      {"measurement": "interaction with TLR2 among candidates tested (pull-down)", "setting": "[2]; HEK 293T cells, Strep-AmTARS and TLR2-FLAG", "value": "interacted only with TLR2"},
      {"measurement": "direct interaction with TLR2 (in vitro pull-down)", "setting": "[2]; purified TLR2-FLAG and His-tagged proteins, Ni-NTA", "value": "interacts directly with TLR2 via the U2-containing catalytic domain (CD)"},
      {"measurement": "secretion/production of IL-6", "setting": "[3]", "value": "not secreted; also recorded: no effect"},
      {"measurement": "secretion/production of IL-10", "setting": "[3]", "value": "increased in a dose-dependent manner; also recorded: significant increase; also recorded: induced production; also recorded: specific to AmTARS"},
      {"measurement": "secretion/production of TNF-α", "setting": "[3]", "value": "not secreted; also recorded: no effect"},
      {"measurement": "increase in B cells", "setting": "[4]", "value": "could not be shown"}
    ]}
  ]
}
